According to PMC8709873:

Target: myc-tagged LRRTM2 (UniProt O43300)
Test: immunostaining of cells or tissue; concentrated conditioned media with Fc proteins (~1 μg/ml) added to CHO cells expressing myc-LRRTM + GFP, on ice 30 min, washed, fixed; Fc detected with Cy3 anti-human IgG, ratio Fc MGV/LRRTM MGV, normalized to control-Fc

Sequence of UniProt O43300 (O43300 34-516): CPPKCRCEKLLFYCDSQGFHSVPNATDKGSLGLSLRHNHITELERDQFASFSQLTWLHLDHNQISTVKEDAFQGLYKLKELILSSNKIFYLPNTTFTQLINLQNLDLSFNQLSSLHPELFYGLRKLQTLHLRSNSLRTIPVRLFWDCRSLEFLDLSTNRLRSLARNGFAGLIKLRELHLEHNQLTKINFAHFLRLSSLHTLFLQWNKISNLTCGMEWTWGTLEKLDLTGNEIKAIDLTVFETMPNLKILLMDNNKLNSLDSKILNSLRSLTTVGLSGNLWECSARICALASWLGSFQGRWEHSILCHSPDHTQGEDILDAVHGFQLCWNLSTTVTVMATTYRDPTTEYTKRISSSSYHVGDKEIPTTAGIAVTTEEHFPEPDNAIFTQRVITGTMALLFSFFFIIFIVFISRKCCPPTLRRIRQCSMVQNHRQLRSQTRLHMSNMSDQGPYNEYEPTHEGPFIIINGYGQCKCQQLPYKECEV

fold increase in binding against WT: 2 fold
Substance: P469S HA-Nrxn1α-ecto-Fc (Fc fusion)
